Source: patent US5583112A, “Saponin-antigen conjugates and the use thereof” (priority 1992, dated 1996)

Columns and labels:
anti-lysozyme IgG = assay: Immunization of mice with QA-21-lysozyme conjugate (total anti-lysozyme IgG); format: in vivo, C57bl/6 mice; settings: days 0 and 14 intradermal; bled day 21
Description: The QA-21-lysozyme from Example 18 conjugate was used to immunize mice (C57bl/6), with and without added QA-21 as adjuvant. Ten nice (9 weeks of age at the beginning of the immunization) were immunized per group. Immunizations were made intradermally at day 0 and day 14 with a total volume of 0.2 ml (PBS buffer, pH 7). The vaccines contained the following dosages of antigen and adjuvant:
The mice were bled on day 21 and the anti-lysozyme IgG titers were determined. Microtitre plates (in the alternative, Co-bind® plates from Micromembranes may be used) were incubated at 4° C. overnight with 10 μg/ml of lysozyme in about 100 μl of PBS. The plates were then washed two times with PBS and blocked for one hour with 150 μl/well of 10% normal goat serum at room temperature. The plates were then washed two times with 0.05% Tween-20 in water.
The mice sera were incubated with the lysozyme coated plates as follows. The individual serum samples (10μl) diluted with 10% normal goat serum in PBS to make 100 μl, as well as serial dilutions thereof (1:10) were added to the wells and incubated for 1 hour at room temperature. The wells were then washed four times with 0.05% Tween-20. […] The conjugate was then detected by tetramethylbenzidine substrate (Bos, E.S. et al., J. Immunoassay 2:187 (1981)). After incubation, the OD450 was read. […]

[1] = system: anti-lysozyme antibodies (IgG1, IgG2B, IgG2A, IgM, IgG3); assay: Isotyping of anti-lysozyme antibodies; format: in vivo, C57bl/6 mice; settings: FIG. 22
Description: Next, the anti-lysozyme antibodies produced by each group of mice were isotyped. Microtitre plates were incubated at 4° C. overnight with 10 μg/ml of lysozyme in about 100 μl of PBS. The plates were then washed two times with PBS and blocked for one hour with 150 μl/well of 10% normal goat serum in PBS at room temperature. The plates were then washed two times with 0.05% Tween-20 in water.
The mice sera were incubated with the lysozyme coated plates as follows. The serum samples were tested in separate lanes for IgG1, IgG2B, IgG2A, IgM and IgG3. The individual serum samples (10 μl) were diluted with 10% normal goat serum in PBS to make 100 μl, and serial dilutions thereof (1:10) were added to the wells and incubated for 1 hour at room temperature. The wells were then washed four times with 0.05% Tween-20. […] The conjugates were then detected by adding 100 μl per well of 1 mg/ml p-nitrophenylphosphate in 0.1M borate, pH 9.0. After incubation for 6 and 24 hours at room temperature, tile OD410 was read.

Substance | Anti-lysozyme antibody response (immunogenicity) (anti-lysozyme IgG) | Antibody isotypes produced [1]
lysozyme-QA-21 conjugate: QA-21 coupled via glucuronic acid to lysozyme, 1:1 molar ratio | higher antibody titer than either of the groups receiving free QA-21 | 
lysozyme: a poorly immunogenic, very hydrophilic protein | poorly immunogenic | only IgM antibodies were produced
